The test system of assay [1] is fusion of HL2/3 cells expressing HIV envelope proteins with HeLa-CD4 cells. Put plainly: gp120-CD4-mediated cell fusion by luciferase assay (HeLa-CD4 + HL2/3 cells). It is filed as cell-based. The note with it: 10 and 50 ug/ml Salp15; 48 hours. The procedure:
106 HeLa-CD4 cells, clone 1022 (NIH AIDS Research & Reference Reagent Program, Germantown, Md., U.S.A.) were plated in a 6-well plate and transfected with the plasmid Blue 3′ LTR-luciferase (NIH AIDS Research & Reference Reagent Program) using the lipofectamin method (Invitrogen).
After 24 hours, the cells were trypsinized and mixed with HL2/3 cells that express HIV envelope proteins (NIH AIDS Research & Reference Reagent Program), encoding Gag, Nef, Rev, Tat and Env proteins from HIV (0.2×106 HeLa-CD4+0.2×106 HL2/3) in a 24-well plate at a final volume of 500 uL. The cells were incubated in the presence of 10 and 50 ug/ml of Salp15. The positive control was anti-CD4 Ab and the negative control was anti-CD3.
The cells were harvested after 48 hours, washed with PBS and lysed with 100 uL of Passive Lysis buffer (Promega) per well, for 15 min at RT. The lysates were transferred to Eppendorf tubes, spun at 10,000×g and assessed for Luciferase activity and protein content by the Bradford assay (BioRad). Luciferase activity is an indicator of cell fusion mediated by the interaction of HIV envelope proteins on HL2/3 cells and CD4 on HeLa-CD4 cells.

Assay [2] addresses T1, sCD4 (Homo sapiens, UniProt P01730).
T1 construct: the extracellular four domains of CD4 (sCD4); purchased Research Diagnostics Inc., Flanders, N.J., U.S.A
The assay is described as follows: Microtiter binding of sCD4-HRP to plate-bound Salp15 and synthetic peptides. The conditions noted are these: plate-bound Salp15 pre-treated with 10 mM DTT. The procedure:
Purified sCD4 was coated overnight at 4° C. at the indicated concentrations in 0.1M sodium carbonate buffer (pH 9.5) in 96 well plates. Equimolar amounts of lysozyme were used as a non-specific control. The wells were washed, blocked with 10% FCS/PBS for 1 hr at R.T., and incubated with Salp15 (0.4 μM) for 2 hr at 37° C. Salp15 binding was detected by incubation with horseradish peroxidase (HRP)-conjugated anti-His antibody for 1 hr followed by microwell peroxidase substrate (KPL). The reaction was stopped by adding TMB stop solution (KPL). Chemically synthesized overlapping peptides of Salp15 were purchased from GenScript Corporation (Piscataway, N.J., U.S.A). To study the binding of Salp15 and peptides to sCD4, Salp15 (5 μg) and different peptides (0.5 μg) were coated. The wells were washed and blocked prior to incubation with sCD4-HRP (Research Diagnostics Inc., Flanders, N.J., U.S.A.). For competition assays, indicated concentrations of Salp15 or P11 were added to sCD4-HRP and incubated with plate bound P11 (0.1 μg). To estimate the effect of dithiothreitol (DTT) treatment of Salp15 on binding to sCD4, 0.5 μM Salp15 was treated with 10 mM DTT overnight and immobilized onto microtiter plate followed by blocking and incubation with sCD4-HRP.
Dissociation constants were determined by non-linear curve fit. The results are expressed as the mean±S.E. of 3 to 5 individual experiments.

Assay [3] has as its system splenic T cells from CD4-deficient mice and control T cells. Put plainly: IL-2 production by anti-CD3/CD28 stimulated T cells from CD4-deficient and B6 mice. It counts as cell-based, mouse. The conditions noted are these: 50 μg/mL Salp15, 72 hrs. The protocol: T-cells from CD4-deficient and B6 mice (The Jackson Laboratory, Bar Harbor, Me., U.S.A.) were purified by negative selection and activated for 72 hrs using 5 μg/ml of plate bound anti-CD3 and 1 μg/ml of anti-CD28 in the presence or absence of 50 μg/mL of Salp15. DO11.10 transgenic mouse (The Jackson Laboratory) CD4^+ T cells were purified by negative selection as before and incubated in the presence of 106/mL of syngeneic mitomycin C-treated (50 μg/ml for 40 min at 37° C.) antigen presenting cells (APCs) with 10 μg/mL of ovalbumin in the presence of 0.5, 5.0 and 50 μg/mL of Salp15 for 72 hrs. The supernatants were then collected and IL-2 measured by capture ELISA following the manufacturer's instruction (BD Biosciences Pharmingen).

In assay [4] the target is T2, CD4 on HeLa-CD4 cells (Homo sapiens, UniProt P01730).
T2 construct: host or cells: HeLa
The assay is described as follows: Salp15488 binding to HeLa-CD4 and HeLa cells (flow cytometry, confocal microscopy). The procedure: For colocalization experiments, Jurkat and CD4^+ T cells were cytospun as described herein. HeLa and HeLa-CD4 cells were grown on chamber slides. The cells were fixed and stained with anti-CD4 and Salp15 as follows. Purified Salp15 was labeled using Alexa-488 with the Protein Labeling Kit (Molecular Probes) according to the manufacturer's instructions. Fixed cells were blocked with 5% normal serum and anti-CD16/CD32 (1:100) in PBS, incubated with 1 μg of monoclonal biotinylated anti-CD4 (L3T4) (BD Biosciences Pharmingen) followed by streptavidin594 staining. The cells were then stained with 20 μg/mL of Salp15488. For competition assays, cells were first blocked with 5% normal serum, incubated with either polyclonal anti-CD4 antibody, MT310, OKT4, normal rabbit IgG, Salp15 (0.5 mg/mL) or lysozyme (0.5 mg/mL) followed by staining with Salp15488. All samples were mounted in a GVA Mount (Zymed, San Francisco, Calif., U.S.A.) and visualized with an Olympus Confocal microscope equipped with Fluoview 3.0 software.
Actin polymerization assay was performed as described earlier (Krishnan et al., 2004). […] The cells were washed, resuspended in PBS and analyzed for F-actin content on a FACSCalibur with CellQuest software (Beckton Dickinson, Mountain View, Calif., U.S.A.). […] The cells were washed twice with PBS and analyzed by flow cytometry.

The target in assay [5] is T3, HIV gp120 binding to CD4 (Homo sapiens, UniProt P01730).
T3 construct: coated with 0.05 uM sCD4 (D1-D2 domains)
The assay is described as follows: gp120-HRP binding to plate-coated sCD4 (D1-D2). The conditions noted are these: 0.05, 0.5 and 5 uM Salp15. The protocol: Ninety-six (96) well plates were coated with 0.05 uM sCD4 (D1-D2 domains) in coating buffer (pH 9.6). The plates were washed 2× and blocked with 200 uL of PBS+10% FCS. Samples were then added containing gp120-HRP plus 0, 0.05, 0.5 and 5 uM Salp15 in PBS+10% FCS. KLH was used as negative control at 5 uM. The plates were incubated for 2 hours at room temperature and washed 4×, followed by incubation with horseradish peroxidase substrate and stop solution from KPL.

“Salp15: secreted salivary protein from Ixodes scapularis, SEQ ID NO: 2; recombinant His-tagged, produced in Drosophila S2 cells”: in assay [1], the “Reduction in cell fusion (luciferase activity)” value was “concentration dependent reduction”. The “CD4 binding after DTT pre-treatment compared to control Salp15” value in assay [2] was “equivalent binding levels”. For the same substance, the “Inhibition (immunosuppressive activity, IL-2)” value in assay [3] (T cells from CD4-negative mice) was found to be 33%; in assay [3] (control T cells (B6 mice)), 85%. In addition, the “Salp15 binding on untransfected HeLa cells” value in assay [4] (confocal microscopy) is “but not in untransfected cells”. For the same substance, in assay [4] (flow cytometry), the “Salp15 binding to HeLa-CD4 cells compared to non-transfected controls” value is reported as “increase”. In addition, the “Inhibition of gp120 binding to CD4” value in assay [5] was “concentration dependent inhibition”.

The record behind these values is patent US8119589B2, “Modulation of CD4+ T cell responses by a tick saliva protein, Salp15 and polypeptides derived therefrom” (University of North Carolina at Charlotte, priority 2004, dated 2012).
